# Test results taken from paper PMC6628393.
# Molecular target: Kv2.1 potassium channel (UniProt Q14721)
# Chain of UniProt Q14721 (Q14721 whole entry): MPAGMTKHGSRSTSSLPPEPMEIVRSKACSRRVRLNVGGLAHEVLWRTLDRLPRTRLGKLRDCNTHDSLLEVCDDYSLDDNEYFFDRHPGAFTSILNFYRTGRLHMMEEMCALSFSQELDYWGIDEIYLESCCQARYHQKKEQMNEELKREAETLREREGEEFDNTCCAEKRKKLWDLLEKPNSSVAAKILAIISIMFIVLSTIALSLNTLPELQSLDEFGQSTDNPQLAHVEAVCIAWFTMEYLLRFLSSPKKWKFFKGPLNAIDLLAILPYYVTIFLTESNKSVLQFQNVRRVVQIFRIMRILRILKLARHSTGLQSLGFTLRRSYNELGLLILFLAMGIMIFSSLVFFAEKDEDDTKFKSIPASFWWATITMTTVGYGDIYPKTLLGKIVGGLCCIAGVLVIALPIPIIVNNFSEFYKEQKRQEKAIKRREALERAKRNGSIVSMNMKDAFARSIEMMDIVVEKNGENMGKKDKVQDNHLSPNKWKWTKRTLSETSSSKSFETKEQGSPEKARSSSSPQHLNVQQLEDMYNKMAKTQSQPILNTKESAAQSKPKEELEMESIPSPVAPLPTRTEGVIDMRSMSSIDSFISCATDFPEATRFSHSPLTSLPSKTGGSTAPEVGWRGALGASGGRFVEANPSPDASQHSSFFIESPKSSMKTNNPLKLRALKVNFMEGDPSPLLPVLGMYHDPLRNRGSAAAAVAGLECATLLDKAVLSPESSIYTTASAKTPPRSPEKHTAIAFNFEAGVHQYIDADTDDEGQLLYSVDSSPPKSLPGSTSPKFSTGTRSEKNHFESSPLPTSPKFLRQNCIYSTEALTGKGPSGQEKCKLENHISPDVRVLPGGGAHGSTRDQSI
substance,measurement,value
"MiDCA1, a phospholipase A2 (PLA2) neurotoxin from Micrurus dumerilii carinicauda coral snake venom (enzyme)",inhibition of Kv2.1-mediated current in Xenopus oocytes by 1 μM MiDCA1 (reversible on washout),55%
